Values of other authors, collected in PMC5803488.
Where two headings read alike, the source gives them in different places.

Tests used:
ubiquitin [1] = target: ubiquitin (UniProt P0CG48)
ubiquitin [2] = target: ubiquitin (UniProt P0CG48); remark: listed apart in the source

Sequence of Tsg101 UEV (Q99816 1-148): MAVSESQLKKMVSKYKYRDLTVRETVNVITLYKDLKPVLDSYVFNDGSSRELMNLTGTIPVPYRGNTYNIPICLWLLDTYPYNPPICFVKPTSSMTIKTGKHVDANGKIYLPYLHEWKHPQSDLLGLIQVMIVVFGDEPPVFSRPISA
Sequence of Vps36 (Eap45) GLUE (Q86VN1 1-138): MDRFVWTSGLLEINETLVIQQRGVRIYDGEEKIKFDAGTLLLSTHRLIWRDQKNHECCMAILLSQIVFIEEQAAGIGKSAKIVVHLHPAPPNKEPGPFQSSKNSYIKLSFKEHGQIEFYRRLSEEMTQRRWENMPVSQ

Substance	Kd (ubiquitin [1]) [µM]	Kd (ubiquitin [2]) [µM]
Tsg101 UEV (from UniProt Q99816)	510	
Vps36 (Eap45) GLUE (from UniProt Q86VN1)		330
